Experimental data reported in IntAct's records for PubMed 18583962.

B1: LIM domain-binding protein 1 (Mus musculus), P70662 (parent)
chain: MSVGCACPGCSSKSFKLYSPKEPPNGNAFPPFHPGTMLDRDVGPTPMYPPTYLEPGIGRHTPYGNQTDYRIFELNKRLQNWTEECDNLWWDAFTTEFFEDDAMLTITFCLEDGPKRYTIGRTLIPRYFRSIFEGGATELYYVLKHPKEAFHSNFVSLDCDQGSMVTQHGKPMFTQVCVEGRLYLEFMFDDMMRIKTWHFSIRQHRELIPRSILAMHAQDPQMLDQLSKNITRCGLSNSTLNYLRLCVILEPMQELMSRHKTYSLSPRDCLKTCLFQKWQRMVAPPAEPARQQPSKRRKRKMSGGSTMSSGGGNTNNSNSKKKSPASTFALSSQVPDVMVVGEPTLMGGEFGDEDERLITRLENTQFDAANGIDDEDSFNNSPALGANSPWNSKPPSSQESKSENPTSQASQ
partner: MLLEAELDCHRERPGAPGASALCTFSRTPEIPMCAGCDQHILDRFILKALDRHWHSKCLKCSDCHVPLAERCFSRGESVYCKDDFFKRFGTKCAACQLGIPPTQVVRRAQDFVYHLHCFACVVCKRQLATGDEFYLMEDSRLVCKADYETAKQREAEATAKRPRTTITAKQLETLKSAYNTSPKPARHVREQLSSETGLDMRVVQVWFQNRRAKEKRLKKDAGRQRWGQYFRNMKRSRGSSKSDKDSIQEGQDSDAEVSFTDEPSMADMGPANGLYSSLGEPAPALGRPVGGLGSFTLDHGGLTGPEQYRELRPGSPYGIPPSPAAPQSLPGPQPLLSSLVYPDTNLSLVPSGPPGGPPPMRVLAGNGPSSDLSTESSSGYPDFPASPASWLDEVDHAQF
B2: LIM domain-binding protein 1 (Mus musculus), P70662 (parent)
chain: B1 chain
partner: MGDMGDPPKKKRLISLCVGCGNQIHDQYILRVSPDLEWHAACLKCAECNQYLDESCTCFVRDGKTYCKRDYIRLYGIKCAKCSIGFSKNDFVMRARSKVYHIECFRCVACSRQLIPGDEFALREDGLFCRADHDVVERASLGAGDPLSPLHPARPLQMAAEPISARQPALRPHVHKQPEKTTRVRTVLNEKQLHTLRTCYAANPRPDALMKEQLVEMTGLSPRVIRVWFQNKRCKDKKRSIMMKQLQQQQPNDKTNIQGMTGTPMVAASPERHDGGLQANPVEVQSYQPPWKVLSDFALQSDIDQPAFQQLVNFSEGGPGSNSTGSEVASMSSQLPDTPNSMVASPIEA
B3: Insulin gene enhancer protein ISL-1 (Mus musculus), P61372 (parent)
chain: B2 partner
partner: B1 partner

Variants of: B1
Conditions: with lhx3_mouse Lhx3, P50481

| Variant | effect of a mutation on the interaction |
| --- | --- |
| MSVGCACPGCSSKSFKLYSPKEPPNGNAFPPFHPGTMLDRDVGPTPMYPPTYLEPGIGRHTPYGNQTDYRIFELNKRLQNWTEECDNLWWDAFTTEFFEDDAMLTITFCLEDGPKRYTIGRTLIPRYFRSIFEGGATELYYVLKHPKEAFHSNFVSLDCDQGSMVTQHGKPMFTQVCVEGRLYLEFMFDDMMRIKTWHFSIRQHRELIPRSILAMHAQDPQMLDQLSKNITRCGLSNSTLNYLRLCVILEPMQELMSRHKTYSLSPRDCLKTCLFQKWQRMVAPPAEPARQQPSKRRKRKMSGGSTMSSGGGNTNNSNSKKKSPASTFALSSQVPDVMAVGEPTLMGGEFGDEDERLITRLENTQFDAANGIDDEDSFNNSPALGANSPWNSKPPSSQESKSENPTSQASQ [V339A] | disrupting interaction |

Variants of: B1
Conditions: with lhx3_mouse Lhx3, P50481
Remark: another data set of the same source

| Variant | effect of a mutation on the interaction |
| --- | --- |
| MSVGCACPGCSSKSFKLYSPKEPPNGNAFPPFHPGTMLDRDVGPTPMYPPTYLEPGIGRHTPYGNQTDYRIFELNKRLQNWTEECDNLWWDAFTTEFFEDDAMLTITFCLEDGPKRYTIGRTLIPRYFRSIFEGGATELYYVLKHPKEAFHSNFVSLDCDQGSMVTQHGKPMFTQVCVEGRLYLEFMFDDMMRIKTWHFSIRQHRELIPRSILAMHAQDPQMLDQLSKNITRCGLSNSTLNYLRLCVILEPMQELMSRHKTYSLSPRDCLKTCLFQKWQRMVAPPAEPARQQPSKRRKRKMSGGSTMSSGGGNTNNSNSKKKSPASTFALSSQVPDVAVVGEPTLMGGEFGDEDERLITRLENTQFDAANGIDDEDSFNNSPALGANSPWNSKPPSSQESKSENPTSQASQ [M338A] | disrupting interaction |
| MSVGCACPGCSSKSFKLYSPKEPPNGNAFPPFHPGTMLDRDVGPTPMYPPTYLEPGIGRHTPYGNQTDYRIFELNKRLQNWTEECDNLWWDAFTTEFFEDDAMLTITFCLEDGPKRYTIGRTLIPRYFRSIFEGGATELYYVLKHPKEAFHSNFVSLDCDQGSMVTQHGKPMFTQVCVEGRLYLEFMFDDMMRIKTWHFSIRQHRELIPRSILAMHAQDPQMLDQLSKNITRCGLSNSTLNYLRLCVILEPMQELMSRHKTYSLSPRDCLKTCLFQKWQRMVAPPAEPARQQPSKRRKRKMSGGSTMSSGGGNTNNSNSKKKSPASTFALSSQVPDVMVVGEPTLMGGEFGDEDERLATRLENTQFDAANGIDDEDSFNNSPALGANSPWNSKPPSSQESKSENPTSQASQ [I358A] | disrupting interaction |

Variants of: B1
Conditions: with lhx3_mouse Lhx3, P50481
Remark: another data set of the same source

| Variant | effect of a mutation on the interaction |
| --- | --- |
| MSVGCACPGCSSKSFKLYSPKEPPNGNAFPPFHPGTMLDRDVGPTPMYPPTYLEPGIGRHTPYGNQTDYRIFELNKRLQNWTEECDNLWWDAFTTEFFEDDAMLTITFCLEDGPKRYTIGRTLIPRYFRSIFEGGATELYYVLKHPKEAFHSNFVSLDCDQGSMVTQHGKPMFTQVCVEGRLYLEFMFDDMMRIKTWHFSIRQHRELIPRSILAMHAQDPQMLDQLSKNITRCGLSNSTLNYLRLCVILEPMQELMSRHKTYSLSPRDCLKTCLFQKWQRMVAPPAEPARQQPSKRRKRKMSGGSTMSSGGGNTNNSNSKKKSPASTFALSSQVPDVMVVGEPALMGGEFGDEDERLITRLENTQFDAANGIDDEDSFNNSPALGANSPWNSKPPSSQESKSENPTSQASQ [T344A] | disrupting interaction |

Variants of: B1
Conditions: with lhx3_mouse Lhx3, P50481
Remark: another data set of the same source

| Variant | effect of a mutation on the interaction |
| --- | --- |
| MSVGCACPGCSSKSFKLYSPKEPPNGNAFPPFHPGTMLDRDVGPTPMYPPTYLEPGIGRHTPYGNQTDYRIFELNKRLQNWTEECDNLWWDAFTTEFFEDDAMLTITFCLEDGPKRYTIGRTLIPRYFRSIFEGGATELYYVLKHPKEAFHSNFVSLDCDQGSMVTQHGKPMFTQVCVEGRLYLEFMFDDMMRIKTWHFSIRQHRELIPRSILAMHAQDPQMLDQLSKNITRCGLSNSTLNYLRLCVILEPMQELMSRHKTYSLSPRDCLKTCLFQKWQRMVAPPAEPARQQPSKRRKRKMSGGSTMSSGGGNTNNSNSKKKSPASTFALSSQVPDVMVVGEPTAMGGEFGDEDERLITRLENTQFDAANGIDDEDSFNNSPALGANSPWNSKPPSSQESKSENPTSQASQ [L345A] | disrupting interaction |

Variants of: B2
Conditions: with isl1_mouse Isl1, P61372

| Variant | effect of a mutation on the interaction |
| --- | --- |
| MSVGCACPGCSSKSFKLYSPKEPPNGNAFPPFHPGTMLDRDVGPTPMYPPTYLEPGIGRHTPYGNQTDYRIFELNKRLQNWTEECDNLWWDAFTTEFFEDDAMLTITFCLEDGPKRYTIGRTLIPRYFRSIFEGGATELYYVLKHPKEAFHSNFVSLDCDQGSMVTQHGKPMFTQVCVEGRLYLEFMFDDMMRIKTWHFSIRQHRELIPRSILAMHAQDPQMLDQLSKNITRCGLSNSTLNYLRLCVILEPMQELMSRHKTYSLSPRDCLKTCLFQKWQRMVAPPAEPARQQPSKRRKRKMSGGSTMSSGGGNTNNSNSKKKSPASTFALSSQVPDVMVVGEPTLMGGEFGDEDERLIARLENTQFDAANGIDDEDSFNNSPALGANSPWNSKPPSSQESKSENPTSQASQ [T359A] | disrupting interaction |

Variants of: B2
Conditions: with isl1_mouse Isl1, P61372
Remark: another data set of the same source

| Variant | effect of a mutation on the interaction |
| --- | --- |
| MSVGCACPGCSSKSFKLYSPKEPPNGNAFPPFHPGTMLDRDVGPTPMYPPTYLEPGIGRHTPYGNQTDYRIFELNKRLQNWTEECDNLWWDAFTTEFFEDDAMLTITFCLEDGPKRYTIGRTLIPRYFRSIFEGGATELYYVLKHPKEAFHSNFVSLDCDQGSMVTQHGKPMFTQVCVEGRLYLEFMFDDMMRIKTWHFSIRQHRELIPRSILAMHAQDPQMLDQLSKNITRCGLSNSTLNYLRLCVILEPMQELMSRHKTYSLSPRDCLKTCLFQKWQRMVAPPAEPARQQPSKRRKRKMSGGSTMSSGGGNTNNSNSKKKSPASTFALSSQVPDVMVVGEPTLMGGEFGDEDEAAATRLENTQFDAANGIDDEDSFNNSPALGANSPWNSKPPSSQESKSENPTSQASQ [R356A;L357A;I358A] | disrupting interaction |

Variants of: B2
Conditions: with isl1_mouse Isl1, P61372
Remark: another data set of the same source

| Variant | effect of a mutation on the interaction |
| --- | --- |
| MSVGCACPGCSSKSFKLYSPKEPPNGNAFPPFHPGTMLDRDVGPTPMYPPTYLEPGIGRHTPYGNQTDYRIFELNKRLQNWTEECDNLWWDAFTTEFFEDDAMLTITFCLEDGPKRYTIGRTLIPRYFRSIFEGGATELYYVLKHPKEAFHSNFVSLDCDQGSMVTQHGKPMFTQVCVEGRLYLEFMFDDMMRIKTWHFSIRQHRELIPRSILAMHAQDPQMLDQLSKNITRCGLSNSTLNYLRLCVILEPMQELMSRHKTYSLSPRDCLKTCLFQKWQRMVAPPAEPARQQPSKRRKRKMSGGSTMSSGGGNTNNSNSKKKSPASTFALSSQVPDVMVVGEPTLMGGEFGDEDERLIAAAENTQFDAANGIDDEDSFNNSPALGANSPWNSKPPSSQESKSENPTSQASQ [T359A;R360A;L361A] | decreasing interaction |

Variants of: B3
Conditions: with lhx3_mouse Lhx3, P50481

| Variant | effect of a mutation on the interaction |
| --- | --- |
| MGDMGDPPKKKRLISLCVGCGNQIHDQYILRVSPDLEWHAACLKCAECNQYLDESCTCFVRDGKTYCKRDYIRLYGIKCAKCSIGFSKNDFVMRARSKVYHIECFRCVACSRQLIPGDEFALREDGLFCRADHDVVERASLGAGDPLSPLHPARPLQMAAEPISARQPALRPHVHKQPEKTTRVRTVLNEKQLHTLRTCYAANPRPDALMKEQLVEMTGLSPRVIRVWFQNKRCKDKKRSIMMKQLQQQQPNDKTNIQGMTGTPAVAASPERHDGGLQANPVEVQSYQPPWKVLSDFALQSDIDQPAFQQLVNFSEGGPGSNSTGSEVASMSSQLPDTPNSMVASPIEA [M265A] | disrupting interaction |

Variants of: B3
Conditions: with lhx3_mouse Lhx3, P50481
Remark: another data set of the same source

| Variant | effect of a mutation on the interaction |
| --- | --- |
| MGDMGDPPKKKRLISLCVGCGNQIHDQYILRVSPDLEWHAACLKCAECNQYLDESCTCFVRDGKTYCKRDYIRLYGIKCAKCSIGFSKNDFVMRARSKVYHIECFRCVACSRQLIPGDEFALREDGLFCRADHDVVERASLGAGDPLSPLHPARPLQMAAEPISARQPALRPHVHKQPEKTTRVRTVLNEKQLHTLRTCYAANPRPDALMKEQLVEMTGLSPRVIRVWFQNKRCKDKKRSIMMKQLQQQQPNDKTNIQGMTATPMVAASPERHDGGLQANPVEVQSYQPPWKVLSDFALQSDIDQPAFQQLVNFSEGGPGSNSTGSEVASMSSQLPDTPNSMVASPIEA [G262A] | disrupting interaction |
| MGDMGDPPKKKRLISLCVGCGNQIHDQYILRVSPDLEWHAACLKCAECNQYLDESCTCFVRDGKTYCKRDYIRLYGIKCAKCSIGFSKNDFVMRARSKVYHIECFRCVACSRQLIPGDEFALREDGLFCRADHDVVERASLGAGDPLSPLHPARPLQMAAEPISARQPALRPHVHKQPEKTTRVRTVLNEKQLHTLRTCYAANPRPDALMKEQLVEMTGLSPRVIRVWFQNKRCKDKKRSIMMKQLQQQQPNDKTNIQGMTGAPMVAASPERHDGGLQANPVEVQSYQPPWKVLSDFALQSDIDQPAFQQLVNFSEGGPGSNSTGSEVASMSSQLPDTPNSMVASPIEA [T263A] | disrupting interaction |
| MGDMGDPPKKKRLISLCVGCGNQIHDQYILRVSPDLEWHAACLKCAECNQYLDESCTCFVRDGKTYCKRDYIRLYGIKCAKCSIGFSKNDFVMRARSKVYHIECFRCVACSRQLIPGDEFALREDGLFCRADHDVVERASLGAGDPLSPLHPARPLQMAAEPISARQPALRPHVHKQPEKTTRVRTVLNEKQLHTLRTCYAANPRPDALMKEQLVEMTGLSPRVIRVWFQNKRCKDKKRSIMMKQLQQQQPNDKTNIQGMTGTAMVAASPERHDGGLQANPVEVQSYQPPWKVLSDFALQSDIDQPAFQQLVNFSEGGPGSNSTGSEVASMSSQLPDTPNSMVASPIEA [P264A] | disrupting interaction |

Variants of: B3
Conditions: with lhx3_mouse Lhx3, P50481
Remark: another data set of the same source

| Variant | effect of a mutation on the interaction |
| --- | --- |
| MGDMGDPPKKKRLISLCVGCGNQIHDQYILRVSPDLEWHAACLKCAECNQYLDESCTCFVRDGKTYCKRDYIRLYGIKCAKCSIGFSKNDFVMRARSKVYHIECFRCVACSRQLIPGDEFALREDGLFCRADHDVVERASLGAGDPLSPLHPARPLQMAAEPISARQPALRPHVHKQPEKTTRVRTVLNEKQLHTLRTCYAANPRPDALMKEQLVEMTGLSPRVIRVWFQNKRCKDKKRSIMMKQLQQQQPNDKTNIQGMTGTPMVGASPERHDGGLQANPVEVQSYQPPWKVLSDFALQSDIDQPAFQQLVNFSEGGPGSNSTGSEVASMSSQLPDTPNSMVASPIEA [A267G] | disrupting interaction |
